Measured values taken from publication PMC3240630.
Where two headings read alike, the source gives them in different places.

Key:
[1] = molecular target: monoubiquitin (UniProt P0CG48); conditions: cited from earlier work
[2] = molecular target: monoubiquitin (UniProt P0CG48); conditions: cited from earlier work; remark: listed apart in the source
[3] = molecular target: monoubiquitin (UniProt P0CG48); conditions: cited from earlier work; remark: listed apart in the source
[4] = molecular target: monoubiquitin (UniProt P0CG48); conditions: cited from earlier work; remark: listed apart in the source
[5] = molecular target: monoubiquitin (UniProt P0CG48); conditions: cited from earlier work; remark: listed apart in the source
[6] = molecular target: monoubiquitin (UniProt P0CG48); conditions: cited from earlier work; remark: listed apart in the source
[7] = molecular target: monoubiquitin (UniProt P0CG48); conditions: cited from earlier work; remark: listed apart in the source
[8] = molecular target: XIAP-UBA-RING double-domain construct (human); assay: SEC; analytical size-exclusion chromatography of 15N-XIAP-UBA-RING at 0.18 mM (methods in Methods S1)

Chain of cIAP-1 (Q13490 whole entry): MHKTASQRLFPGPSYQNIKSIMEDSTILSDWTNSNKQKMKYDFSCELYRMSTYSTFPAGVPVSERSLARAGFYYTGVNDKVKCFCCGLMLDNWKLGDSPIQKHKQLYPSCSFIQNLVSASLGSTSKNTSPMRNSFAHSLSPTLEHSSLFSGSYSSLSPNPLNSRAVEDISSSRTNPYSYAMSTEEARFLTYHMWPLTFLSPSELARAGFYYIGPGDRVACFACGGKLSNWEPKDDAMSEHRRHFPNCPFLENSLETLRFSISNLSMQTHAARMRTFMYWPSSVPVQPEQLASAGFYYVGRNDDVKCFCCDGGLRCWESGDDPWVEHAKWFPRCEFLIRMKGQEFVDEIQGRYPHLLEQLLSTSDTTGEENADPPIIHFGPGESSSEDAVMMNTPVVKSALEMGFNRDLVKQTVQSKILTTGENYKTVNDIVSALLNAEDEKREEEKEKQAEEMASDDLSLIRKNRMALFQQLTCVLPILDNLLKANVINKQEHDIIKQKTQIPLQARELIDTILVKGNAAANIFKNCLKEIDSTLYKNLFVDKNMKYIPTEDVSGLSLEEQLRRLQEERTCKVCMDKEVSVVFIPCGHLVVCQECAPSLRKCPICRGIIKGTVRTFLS
Chain of Dsk2 UBA (P48510 324-373): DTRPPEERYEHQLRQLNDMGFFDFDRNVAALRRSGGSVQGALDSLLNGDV
Chain of Ede1 UBA (P34216 1335-1381): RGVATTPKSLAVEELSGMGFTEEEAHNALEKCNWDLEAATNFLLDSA
Chain of Mud1 UBA (Q10256 291-332): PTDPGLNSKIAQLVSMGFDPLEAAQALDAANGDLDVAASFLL
Chain of Swa2 UBA (Q06677 137-183): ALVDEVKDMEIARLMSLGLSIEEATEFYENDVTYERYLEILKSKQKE
Chain of Cbl-b UBA (Q13191 928-973): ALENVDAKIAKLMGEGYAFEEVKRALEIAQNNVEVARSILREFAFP
Chain of hHR23A UBA2 (P54725 315-361): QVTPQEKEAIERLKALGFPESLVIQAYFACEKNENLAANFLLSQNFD

In the case of Ede1 UBA (from UniProt P34216), the Kd [1] is listed as 83 µM.
In the case of Swa2 UBA (from UniProt Q06677), the Kd [2] is listed as 535 µM.
In the case of hHR23A UBA2 (from UniProt P54725), the Kd [3] is given as 400 µM.
In the case of Dsk2 UBA (from UniProt P48510), the Kd [4] is listed as 14.8 µM.
In the case of cIAP-1 (from UniProt Q13490), the Kd [5] is given as 56 µM.
For Mud1 UBA (from UniProt Q10256), the Kd [6] is given as 350 µM.
In the case of Cbl-b UBA (from UniProt Q13191), the Kd [7] is given as 53.1 µM.
“XIAP-UBA-RING double-domain construct (domain or fragment)” gave a stoichiometry N [8] of 2.
